Source: paper PMC6326742 (Cell, 2018)

Biological target: the molecule itself
Assay: SEC-MALS

B1: Ptch1-B (stabilized mouse PTCH1 variant, SBP-tagged, purified) (receptor, UniProt Q61115 1-1291, looked up)
chain: MASAGNAAGALGRQAGGGRRRRTGGPHRAAPDRDYLHRPSYCDAAFALEQISKGKATGRKAPLWLRAKFQRLLFKLGCYIQKNCGKFLVVGLLIFGAFAVGLKAANLETNVEELWVEVGGRVSRELNYTRQKIGEEAMFNPQLMIQTPKEEGANVLTTEALLQHLDSALQASRVHVYMYNRQWKLEHLCYKSGELITETGYMDQIIEYLYPCLIITPLDCFWEGAKLQSGTAYLLGKPPLRWTNFDPLEFLEELKKINYQVDSWEEMLNKAEVGHGYMDRPCLNPADPDCPATAPNKNSTKPLDVALVLNGGCQGLSRKYMHWQEELIVGGTVKNATGKLVSAHALQTMFQLMTPKQMYEHFRGYDYVSHINWNEDRAAAILEAWQRTYVEVVHQSVAPNSTQKVLPFTTTTLDDILKSFSDVSVIRVASGYLLMLAYACLTMLRWDCSKSQGAVGLAGVLLVALSVAAGLGLCSLIGISFNAATTQVLPFLALGVGVDDVFLLAHAFSETGQNKRIPFEDRTGECLKRTGASVALTSISNVTAFFMAALIPIPALRAFSLQAAVVVVFNFAMVLLIFPAILSMDLYRREDRRLDIFCCFTSPCVSRVIQVEPQAYTEPMQSTVQLRTEYDPHTHVYYTTAEPRSEISVQPVTVTQDNLSCQSPESTSSTRDLLSQFSDSSLHCLEPPCTKWTLSSFAEKHYAPFLLKPKAKVVVILLFLGLLGVSLYGTTRVRDGLDLTDIVPRETREYDFIAAQFKYFSFYNMYIVTQKADYPNIQHLLYDLHKSFSNVKYVMLEENKQLPQMWLHYFRDWLQGLQDAFDSDWETGRIMPNNYKNGSDDGVLAYKLLVQTGSRDKPIDISQLTKQRLVDADGIINPSAFYIYLTAWVSNDPVAYAASQANIRPHRPEWVHDKADYMPETRLRIPAAEPIEYAQFPFYLNGLRDTSDFVEAIEKVRVICNNYTSLGLSSYPNGYPFLFWEQYISLRHWLLLSISVVLACTFLVCAVFLLNPWTAGIIVMVLALMTVELFGMMGLIGIKLSAVPVVILIASVGIGVEFTVHVALAFLTAIGDKNHRAMLALEHMFAPVLDGAVSTLLGVLMLAGSEFDFIVRYFFAVLAILTVLGVLNGLVLLPVLLSFFGPCPEVSPANGLNRLPTPSPEPPPSVVRFAVPPGHTNNGSDSSDSEYSSQTTVSGISEELRQYEAQQGAGGPAHQVIVEATENPVFARSTVVHPDSRHQPPLTPRQQPHLDSGSLSPGRQGQQPRRD
stoichiometry N: 2
